The nanobody polyreactivity screen of Harvey et al. (2022)

Test: yeast display, Sf9 membrane polyspecificity reagent, FACS + sequencing; frameworks hold sequencing errors
Outline: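 Genes from sorted yeast were amplified by colony PCR, read by MiSeq 2 × 250 sequencing and filtered on CDR length. These cells carried a synthetic nanobody library in Saccharomyces cerevisiae BJ5465 and were sorted by FACS into low and high (top ~1%) gates on anti-HA and streptavidin fluorescence. Polyreactivity is labelled according to the gate of origin.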

Sequence	polyreactivity (PSR sort gate)
QVQLVESGGGLVQAGGSLRLSCAASGIIFPYNVMGWYRQAPGKERELVAAITRGAASTYYADSVKGRFTISRDNAKNTVYLQMNSLKPEDTAVYYCATDPVSTRGSDYWGQGTQVTVSS	high polyreactivity
QVQLVESGGGLVQAGGTLRLSCDASGRTFGYNAMGWYRQAPGKAREFDAAITWSGGSTYYADSVKGRFTISRDNAKNTVYLQMNSLKPEDTAVYYCAADLGRPLHGVAYGYWGQGTQVTVSS	low polyreactivity
QVQLVESGGGLVQAGGSLRLSCAASGSIFVGYAMGWYRQAPGKERELVAAISWSGDSTYYADSVKGRFTISRDNAKNTVYLQMNSLKPEDTAVYYCAVDYAEIGPRREVEYDYWGQGTQVTVSS	low polyreactivity
QVQLVESVGGLVQVGGSLRLSCAASGSILTDYGMGWYRQAPGKERELVAAITGSGGSTYYADSVKGRFTISRDNAKNTVYLQMNSLKPEDTAVYYCAKRHVGSRYLFDYWGQGTQVTVSS	low polyreactivity
QVQLVESGGGLVQAGGSLRLSCAASGSTFLLNAMGWSRQAPGKDRELVAAITWTGGSTYYADSVKGRFTISRDNAKNTVYLQMNILKPEDTAVYYCAAETYVTSYDYWGQGTQVTVSS	low polyreactivity
QVHLVESGVGLVQAGGSLRLSCASSGSTYKPNALGWYSQAPGKESEFVAAITSGSTYYADTVKGRYTISRDNAKYNVYLQMNSLKPEDTAVYYCATSVRGKSPYRKSGSYYYWGQGTQVTVSS	high polyreactivity
QVQLVESGGGLVQAGGSLRLSCAASGSIFRSYGMGWYRQAPGKDRELVPSISRRGGSTYYADSVKGRFTISRDNAKNTVYLQTNSLKPEDTAVYYCAAVRYNSRVSTTPSEMYYWGQGTQVTVSS	low polyreactivity
QVQLVESGGGLVQAGGSLRLSCAASGSIFWVYAMGWYRQAPGKERELVADISRSGGSTYYADSVKGRFTISRDNAKNTVYLQMNSLKPEDTAVYYCAAEYYGQVLFQPYVYQLMYYWGQGTQVTVSS	low polyreactivity
QVQLVESGGGLVQAGGSLRLSCAASGRTLGKYAMGWYRQAPGKERELVAAIRWTGGNTYYADSVKGRFTISRDNAKNTVYLQMNSLKPEDPAGYYCNAVSFGRARHGGPVYGYDYWGQGTQVTVSS	high polyreactivity
QVQLVESGGGLVQAGGSLRLSCAASGFTFYPYAMGWYRQAPGKERELVAASTASGGSTYYADSVKGRFTISRDNAKNTVYLQMNSLKPEDTAVFYCAKGWVSYWRYKNEYWGQGTQVTVSS	high polyreactivity
QVQIVESGGGLVQAGASLRLSCAASGLIFPQKVMGWYIQAPGNERVLVAAISSGTITNYADSVKGRFTISRDNAKNSVYLQMNSLKPEDTADYFCAAEEDKKTFDYWGQGTQVTVSS	low polyreactivity
QVKLVESGRALVQAGCSLPLSCAASGRIFTRYAMGWYRQAPGKERELVAAISYGGGGTYYADSVKGSFTISRDNAKNTVYVQMNSLKPEDTAVYYCATDDPLSQINEQGMDYWGQGTQVTVSS	low polyreactivity
QVQLVESGGGLVQAGGSLRLSCAASGRIFSIYAMGWYRQAPGKERELVAAIRSRGGRTHYADSVKVRFTISRDNAKNTVYLQMNSLKPEDTAVYFCNAKYFSGDNYWGQGTQVTVSS	high polyreactivity
QVQLVESGGGLVQAGGSLRLSCAASGSTVYLNAMGWYRQAPGKDRELVAAITRIGGSTYYADSVKGRFTISRDNAKNTVYLQMNSLKPEDTAVYYCAKDYGPARHDRYGYWGLGTQVTVSS	low polyreactivity
QVQLVESGGGLVQAGGSLRLSCAASGSTFRWYTMGWYRQAPGKERELVATISSSTDITYYADSVKGRFTISRDNAKNTVYLQMNSLKPEDTAVYYCAARRVYHYRYYYWGQGTQVTVSS	high polyreactivity
QVQLVESGGGLVQAGGSLRLSCAASGRTFRYNAMGWYRQAPGKERELVAAITYSGGTTYADSVKGRFTISRDNAKNTVYLQMNSLKPEDTAGYYCAARGYVWNIGRYYWGQGTQVTVSS	high polyreactivity

Sequence	polyreactivity (PSR sort gate)
QVQLVESVGGLVQAGGSLRLSCAASGSTFWTNAMGLYRQAPGKERELVATISKTTGRTYYADSVKGRFTISRDNAKNTVYLQMNSLKPEDTAVYYCAAEPYSWDTWVDYDYWGQGTQVTVSS	low polyreactivity
QVQLVDSGGGLVQAGGSLRLSSAASGRIFPRYAMGWDRQAPGKERELVATISSGGSTYYADSVKGRFTISRDNAKNTVYLQMISLKPEDTAVYYCATGRQVVRSYSEGDYWGQGTQVTVSS	low polyreactivity
QVQLVESGAGLVQAGGSLLLSCAASGYIFDVYDMGWYRQAPGKERELVAAITDYADSVKGRFTISRDNAKNTVYLQMNSQKPEDTAVYYCAADTDVLKGTTGFEYWGQGTQVTVSS	low polyreactivity
QVQLVESGGGLVQAGGSLRLSCAASGYIFQTYAMGWYRQAPGKEREFVAAITSGAGRTSYADSVKGRFTISRDNAKNTVYLQMNSLKPEDTAVYYCAARWRYQLSGSRLSYGKYDYWGQGTQVTVSS	high polyreactivity
QVQLVESGGGLVQAGGSLRLSCAASGYTFLGNAMGWYRQAPGKERELVAAISSGGTTYYADSVKGRFTISRDNAKNTVYLQMNSMKPEDTSVYYCADDRVGLSSGYDFWGQGTQVTVSS	low polyreactivity
QVQLVESRGGLLQAGGSLRLSCAASGSIFKYYSMGSYRQAPGKERELVAAIRWSGGTTYYADSVKGRFTISRDNAKNTVYLQMNSLKPEDTAVYYCAAEYFNQNTREGYDYWGQGSQVTVSS	low polyreactivity
QVQLVESGGGLVQAGGSLRLSCAASGRIFAVYVMGWYRQAPGKERELVAAISQSGGRTYYADSVKGRFTISRDNAKNTVYLQMNSLITEDTAVYYCNTVTSRATNFSGLGYWGQGTQVTVSS	high polyreactivity
QVQLVESGGGLVQAGGSLRLSCAASGRIFSVYVMGWYRQAPGKERELVAAITRSGGRTYYADSVKGRFTISRDNAKNTVYLQMNSLKPDDTAVYYCAARVKGYAYNYWGQGTQVTVSS	high polyreactivity
QVQLVESGGGLVQAGASLRLSCAASGSTFYFYTMGWYRQAPWKERELVAAITRDGSTYYADSVKGRFTISRDNAKNTVYLQMNSLKPEDTAVYYCNALRWAYKFSAYYYWGQGTQVSVSS	low polyreactivity
QVQLVESGGGLVQAGGSLRLSCAASGRIFRYYAMGWYRQAPGKERELVASINSGGSTYYADSVKGRFTISRDNAKNTVYLQLNSLKPEDTAVYYCAKRVGHSRHADNDYWGQGTQVTVSS	low polyreactivity
QVQLVESGGGLVQAGGSLRLSCAASGFIFRSYAMGWYRQAPGKERELVAVISRRGVNTHYADSVKGRFTISRDNAKNTVYLQMNSLKPEDTAVYYCAKGLTALGDYWGQGTQVTVSS	high polyreactivity
QVQHVESGGGLVQAGGSLRLSCAACGRTFTPYAMGWYLQEPGKDREFVAAIDTSGGSTYADSVNGRFTISRDNAKYTVYLQKNSLKPEDTAVYYCGTRGFYSWDYWYLWEYDYWGQGTQVTVSS	low polyreactivity
QVQHVESGGGLVQAGGSLRLSCAASGSTFYGNAMGWYRQAPGKEREFVASINSRGGITYYADSVKGRFTISRDNAKNTVYLQMNSLKPEDTAVYYCNTRVLSFYHYPYDYWGQGTQVTVSS	high polyreactivity
QVQLVESGGGLVQAGGSLRLSCAASGSIFFVNAMGWYRQAPGKERELVAAITWNAGRTYYADSVKGRFTISRDNAKNTVYLQMNSLKPEDTAVYYCNARAYYSSAIYDYWGQGTQVTVSS	low polyreactivity
QVQLVESGGGLVQAGGSLRLSCAASGYTLKWYTMGWYRQAPGKERELVATIRRGGGTYYADSVKGRFTISRDNAKNTVYLQMNSLKPEDTAVYYCNARDRRRTNLLDYWGQGTQVTVSS	low polyreactivity
QVQLVESGGGLVQAGGSLRLICAASGSIFVYNAMGSYRQAPAKERELVAAISQRGGSTYYADSVKGRFTISRDNAKNTVYLQMKSLKPEDTAVYYCAAGPGDSGDDYWGQGTQVTVSS	low polyreactivity
